Experimental data as given in patent publication US7858298 (PROGENICS PHARMACEUTICALS, dated 2010).

Experiments:
[1] = biological target: T1, recombinant soluble human CD4 (human, UniProt P01730 26-396); experiment: flow cytometry on human CCR5-bearing murine L1.2 cells (data not shown)
T1 construct: also called sCD4; soluble CD4

[2] = biological target: T2, complex formed between sCD4 and biotinylated HIV-1LAI gp120 (HIV-1 LAI (BRU); human, UniProt P03377 33-516; P01730 26-396); experiment: as above
T2 construct: also called b-LAI:sCD4

B1: human CCR5 expressed on the cell surface (receptor)
chain: not shown
notes: whole, on cells; also called C-C CKR-5; CKR-5
B1: no binding [1]; no binding [2].
